Test results published in patent US6610289B2, “Mutated herpes simplex virus type 1 thymidine kinases and uses thereof” (The Board of Trustees of the University of Arkansas, priority 1998, dated 2003).
Numbering of substitutions follows the chain as printed.

Assays:
[1] = target: T1, HSV-1 TK (Human herpesvirus 1, UniProt P0DTH5, Q125N); conditions: previous study (17); cited from earlier work
T1 construct: glutathione-S-transferase (GST)
T1 sequence (P0DTH5 1-376 Q125N): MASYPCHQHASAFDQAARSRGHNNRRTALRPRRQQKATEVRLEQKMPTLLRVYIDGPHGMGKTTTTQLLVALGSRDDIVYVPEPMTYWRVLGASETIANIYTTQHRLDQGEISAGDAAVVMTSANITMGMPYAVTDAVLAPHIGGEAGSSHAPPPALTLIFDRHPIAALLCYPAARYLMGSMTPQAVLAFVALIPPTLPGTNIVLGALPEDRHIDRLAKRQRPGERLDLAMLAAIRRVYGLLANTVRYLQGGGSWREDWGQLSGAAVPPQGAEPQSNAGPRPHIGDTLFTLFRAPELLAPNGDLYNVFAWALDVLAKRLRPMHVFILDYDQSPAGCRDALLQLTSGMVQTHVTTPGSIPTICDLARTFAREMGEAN

[2] = target: T2, HSV-1 TK (Human herpesvirus 1, UniProt P0DTH5); conditions: reference (29); cited from earlier work
T2 sequence (P0DTH5 1-376): T1 sequence (P0DTH5 1-376 Q125N) with N125Q

[3] = target: T2, HSV-1 TK; assay: Photoaffinity labeling with [^32P]5-azido-dUMP; assay type: binding, herpes simplex virus type 1; set-up: made in house; host or cells: E. coli BL21SY211 (pET-9a derived pET-TK1); conditions: FIG. 1, autoradiograph
Procedure: The TMP photoaffinity analog, [^32P]5-N3dUMP, was synthesized enzymatically using HSV-1 TK, 5-azido-deoxyuridine and [g-^32P]ATP as previously described (10, 12). For photolabeling studies, 10 μg of the DE-52/heparin agarose purified HSV-TKs were incubated with 10 mM [^32P]5-N3dUMP for 10 seconds. The sample was then irradiated for 90 seconds with a hand-held UV lamp (254 nm UVP-11, Ultraviolet Products, Inc.) at a distance of 3 cm. Reactions were terminated by addition of an equal volume of 10% TCA, incubated on ice for 10 minutes, and pelleted by centrifugation at 13,000×g for 5 minutes. The protein was resuspended in a solubilization mixture (23) and separated on 10% SDS-polyacrylamide gels. Dried gels were exposed to film for 2 days.
The thymidine and TMP photoaffinity analog, [^32p]5-azido-dUMP, has proven useful as an active-site cross-linking reagent for studying HSV-1 TK (10, 12). This analog was used for photocrosslinking of the four HSV-1 TKs.

[4] = target: T3, HSV-1 TK (Human herpesvirus 1, UniProt P0DTH5, Q125E); conditions: previous study (17); cited from earlier work
T3 construct: glutathione-S-transferase (GST)
T3 sequence (P0DTH5 1-376 Q125E): T1 sequence (P0DTH5 1-376 Q125N) with N125E

## Asn-125
[1]
  Increase in the Km of ACV: 3 fold
  Increase in the Km of thymidine: 50 fold

## Gln-125 (WT): wild-type herpes simplex virus type 1 thymidine kinase with glutamine at position 125, parent enzyme [reference compound]
[2]
  Km for thymidine lower than that of GCV: 70-100 times
[3]
  Photoincorporation of [^32P]5-azido-dUMP: photoincorporated efficiently

## Glu-125
[4]
  Thymidine and ACV phosphorylation activities: no detectable activities
